Measurements as given in patent publication US6800738.

Experiments:
[1] = target: p185^HER2 on cells (SK-BR-3 human breast tumor cells; WI-38 cells) (human, UniProt P04626 23-1255); experiment: cell-based or functional assay
[2] = target: T1, p185^HER2 ECD (secreted form of the extracellular domain of p185^HER2) (human, UniProt P04626 23-652); experiment: ratio of Kd values, solution equilibrium/ELISA
T1 construct: extracellular domain; also called HER2 extracellular domain

[3] = target: T1, p185^HER2 ECD (secreted form of the …); experiment: solution equilibrium with p185HER2 ECD, free antibody by ELISA on immobilized ECD (Friguet method)

B1: huMAb4D5-2 (antibody, name in Kabat numbering, V domains shown)
VH: EVQLVESGGGLVQPGGSLRLSCAASGFNIKDTYIHWVRQAPGKGLEWVARIYPTNGYTRYADSVKGRFTISADDSKNTLYLQMNSLRAEDTAVYYCARWGGDGFYAMDVWGQGTLVTVSS
VL: not shown
Relative cell proliferation of SK-BR-3 cells, 96 hr, 8 ug/ml antibody [1]: 101 % of untreated control
fold increase in affinity over huMAb4D5-1 [2]: 5 fold
Kd [3]: 4.7 nM
